From PMC12416549 (2024) come the findings set out here.

In the assay the target is T1, TNFR1 (Homo sapiens, UniProt P19438).
T1 chain: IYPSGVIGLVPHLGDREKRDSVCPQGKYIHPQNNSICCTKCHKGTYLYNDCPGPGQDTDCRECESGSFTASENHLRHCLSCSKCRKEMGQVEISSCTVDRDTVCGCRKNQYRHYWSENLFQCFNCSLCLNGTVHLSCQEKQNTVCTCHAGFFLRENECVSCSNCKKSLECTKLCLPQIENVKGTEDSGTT
In words: yeast display SC50.

B1: E86I (designed binder)
chain: MTLQELLREEALRRAEAEAFRYALELLAEKFPEQKEYLLDLAEEIESQIRSLSGVDVEDVRKFLDKEWAWVKELLAEHPAELAEVIAARAARLAELRAEVEAKVAA
For the molecule B1, the “apparent Kd (screen)” value stood at 0.718 nM.

B2: E16T (designed binder)
chain: MTLQELLREEALRRATAEAFRYALELLAEKFPEQKEYLLDLAEEIESQIRSLSGVDVEDVRKFLDKEWAWVKELLAEHPAELAEVEAARAARLAELRAEVEAKVAA
As to B2, the “apparent Kd (screen)” value came to 0.539 nM.

B3: S51Q (designed binder)
chain: MTLQELLREEALRRAEAEAFRYALELLAEKFPEQKEYLLDLAEEIESQIRQLSGVDVEDVRKFLDKEWAWVKELLAEHPAELAEVEAARAARLAELRAEVEAKVAA
As to B3, the “apparent Kd (screen)” value worked out at 1.27 nM.

B4: E10T (designed binder)
chain: MTLQELLRETALRRAEAEAFRYALELLAEKFPEQKEYLLDLAEEIESQIRSLSGVDVEDVRKFLDKEWAWVKELLAEHPAELAEVEAARAARLAELRAEVEAKVAA
As for B4, the “apparent Kd (screen)” value came out at 5.31 nM.

B5: A94R (designed binder)
chain: MTLQELLREEALRRAEAEAFRYALELLAEKFPEQKEYLLDLAEEIESQIRSLSGVDVEDVRKFLDKEWAWVKELLAEHPAELAEVEAARAARLRELRAEVEAKVAA
For the molecule B5, the “apparent Kd (screen)” value was found to be 0.869 nM.

B6: L93C (designed binder)
chain: MTLQELLREEALRRAEAEAFRYALELLAEKFPEQKEYLLDLAEEIESQIRSLSGVDVEDVRKFLDKEWAWVKELLAEHPAELAEVEAARAARCAELRAEVEAKVAA
In the case of B6, the “apparent Kd (screen)” value came to 0.653 nM.

B7: L7P (designed binder)
chain: MTLQELPREEALRRAEAEAFRYALELLAEKFPEQKEYLLDLAEEIESQIRSLSGVDVEDVRKFLDKEWAWVKELLAEHPAELAEVEAARAARLAELRAEVEAKVAA
As to B7, the “apparent Kd (screen)” value amounted to 0.79 nM.

B8: L6T (designed binder)
chain: MTLQETLREEALRRAEAEAFRYALELLAEKFPEQKEYLLDLAEEIESQIRSLSGVDVEDVRKFLDKEWAWVKELLAEHPAELAEVEAARAARLAELRAEVEAKVAA
Regarding B8, the “apparent Kd (screen)” value was 10.4 nM.

B9: E25Q (designed binder)
chain: MTLQELLREEALRRAEAEAFRYALQLLAEKFPEQKEYLLDLAEEIESQIRSLSGVDVEDVRKFLDKEWAWVKELLAEHPAELAEVEAARAARLAELRAEVEAKVAA
For B9, the “apparent Kd (screen)” value was 0.539 nM.

B10: R89Y (designed binder)
chain: MTLQELLREEALRRAEAEAFRYALELLAEKFPEQKEYLLDLAEEIESQIRSLSGVDVEDVRKFLDKEWAWVKELLAEHPAELAEVEAAYAARLAELRAEVEAKVAA
Turning to B10, the “apparent Kd (screen)” value was 0.539 nM.

B11: E44I (designed binder)
chain: MTLQELLREEALRRAEAEAFRYALELLAEKFPEQKEYLLDLAEIIESQIRSLSGVDVEDVRKFLDKEWAWVKELLAEHPAELAEVEAARAARLAELRAEVEAKVAA
In the case of B11, the “apparent Kd (screen)” value turned out to be 0.869 nM.

B12: E86N (designed binder)
chain: MTLQELLREEALRRAEAEAFRYALELLAEKFPEQKEYLLDLAEEIESQIRSLSGVDVEDVRKFLDKEWAWVKELLAEHPAELAEVNAARAARLAELRAEVEAKVAA
Turning to B12, the “apparent Kd (screen)” value was 1.05 nM.

B13: D56F (designed binder)
chain: MTLQELLREEALRRAEAEAFRYALELLAEKFPEQKEYLLDLAEEIESQIRSLSGVFVEDVRKFLDKEWAWVKELLAEHPAELAEVEAARAARLAELRAEVEAKVAA
For the molecule B13, the “apparent Kd (screen)” value was determined as 2.73 nM.

B14: L12H (designed binder)
chain: MTLQELLREEAHRRAEAEAFRYALELLAEKFPEQKEYLLDLAEEIESQIRSLSGVDVEDVRKFLDKEWAWVKELLAEHPAELAEVEAARAARLAELRAEVEAKVAA
As to B14, the “apparent Kd (screen)” value was 0.956 nM.

B15: E46Q (designed binder)
chain: MTLQELLREEALRRAEAEAFRYALELLAEKFPEQKEYLLDLAEEIQSQIRSLSGVDVEDVRKFLDKEWAWVKELLAEHPAELAEVEAARAARLAELRAEVEAKVAA
Turning to B15, the “apparent Kd (screen)” value is 0.49 nM.

B16: E46N (designed binder)
chain: MTLQELLREEALRRAEAEAFRYALELLAEKFPEQKEYLLDLAEEINSQIRSLSGVDVEDVRKFLDKEWAWVKELLAEHPAELAEVEAARAARLAELRAEVEAKVAA
In the case of B16, the “apparent Kd (screen)” value came to 0.593 nM.

B17: E18T (designed binder)
chain: MTLQELLREEALRRAEATAFRYALELLAEKFPEQKEYLLDLAEEIESQIRSLSGVDVEDVRKFLDKEWAWVKELLAEHPAELAEVEAARAARLAELRAEVEAKVAA
As to B17, the “apparent Kd (screen)” value came out at 0.593 nM.

B18: L52V (designed binder)
chain: MTLQELLREEALRRAEAEAFRYALELLAEKFPEQKEYLLDLAEEIESQIRSVSGVDVEDVRKFLDKEWAWVKELLAEHPAELAEVEAARAARLAELRAEVEAKVAA
B18: the “apparent Kd (screen)” value is 0.49 nM.

B19: V100E (designed binder)
chain: MTLQELLREEALRRAEAEAFRYALELLAEKFPEQKEYLLDLAEEIESQIRSLSGVDVEDVRKFLDKEWAWVKELLAEHPAELAEVEAARAARLAELRAEEEAKVAA
As for B19, the “apparent Kd (screen)” value was 0.539 nM.

B20: T2W (designed binder)
chain: MWLQELLREEALRRAEAEAFRYALELLAEKFPEQKEYLLDLAEEIESQIRSLSGVDVEDVRKFLDKEWAWVKELLAEHPAELAEVEAARAARLAELRAEVEAKVAA
Turning to B20, the “apparent Kd (screen)” value came out at 1.16 nM.

B21: Y22C (designed binder)
chain: MTLQELLREEALRRAEAEAFRCALELLAEKFPEQKEYLLDLAEEIESQIRSLSGVDVEDVRKFLDKEWAWVKELLAEHPAELAEVEAARAARLAELRAEVEAKVAA
B21: the “apparent Kd (screen)” value was 0.446 nM.

B22: D59I (designed binder)
chain: MTLQELLREEALRRAEAEAFRYALELLAEKFPEQKEYLLDLAEEIESQIRSLSGVDVEIVRKFLDKEWAWVKELLAEHPAELAEVEAARAARLAELRAEVEAKVAA
With B22, the “apparent Kd (screen)” value was 0.653 nM.

B23: Q34F (designed binder)
chain: MTLQELLREEALRRAEAEAFRYALELLAEKFPEFKEYLLDLAEEIESQIRSLSGVDVEDVRKFLDKEWAWVKELLAEHPAELAEVEAARAARLAELRAEVEAKVAA
Turning to B23, the “apparent Kd (screen)” value stood at 0.79 nM.

B24: A19V (designed binder)
chain: MTLQELLREEALRRAEAEVFRYALELLAEKFPEQKEYLLDLAEEIESQIRSLSGVDVEDVRKFLDKEWAWVKELLAEHPAELAEVEAARAARLAELRAEVEAKVAA
For the molecule B24, the “apparent Kd (screen)” value was 0.446 nM.

B25: I49L (designed binder)
chain: MTLQELLREEALRRAEAEAFRYALELLAEKFPEQKEYLLDLAEEIESQLRSLSGVDVEDVRKFLDKEWAWVKELLAEHPAELAEVEAARAARLAELRAEVEAKVAA
In the case of B25, the “apparent Kd (screen)” value is 0.539 nM.

B26: T2P (designed binder)
chain: MPLQELLREEALRRAEAEAFRYALELLAEKFPEQKEYLLDLAEEIESQIRSLSGVDVEDVRKFLDKEWAWVKELLAEHPAELAEVEAARAARLAELRAEVEAKVAA
Consider B26, for which the “apparent Kd (screen)” value was determined as 0.718 nM.

B27: F31P (designed binder)
chain: MTLQELLREEALRRAEAEAFRYALELLAEKPPEQKEYLLDLAEEIESQIRSLSGVDVEDVRKFLDKEWAWVKELLAEHPAELAEVEAARAARLAELRAEVEAKVAA
In the case of B27, the “apparent Kd (screen)” value came out at 7.78 nM.

B28: L64Q (designed binder)
chain: MTLQELLREEALRRAEAEAFRYALELLAEKFPEQKEYLLDLAEEIESQIRSLSGVDVEDVRKFQDKEWAWVKELLAEHPAELAEVEAARAARLAELRAEVEAKVAA
Turning to B28, the “apparent Kd (screen)” value is 0.79 nM.

B29: R92V (designed binder)
chain: MTLQELLREEALRRAEAEAFRYALELLAEKFPEQKEYLLDLAEEIESQIRSLSGVDVEDVRKFLDKEWAWVKELLAEHPAELAEVEAARAAVLAELRAEVEAKVAA
As to B29, the “apparent Kd (screen)” value was 0.593 nM.

B30: R14H (designed binder)
chain: MTLQELLREEALRHAEAEAFRYALELLAEKFPEQKEYLLDLAEEIESQIRSLSGVDVEDVRKFLDKEWAWVKELLAEHPAELAEVEAARAARLAELRAEVEAKVAA
As to B30, the “apparent Kd (screen)” value came out at 0.49 nM.

B31: K66N (designed binder)
chain: MTLQELLREEALRRAEAEAFRYALELLAEKFPEQKEYLLDLAEEIESQIRSLSGVDVEDVRKFLDNEWAWVKELLAEHPAELAEVEAARAARLAELRAEVEAKVAA
Regarding B31, the “apparent Kd (screen)” value worked out at 0.653 nM.

B32: K66F (designed binder)
chain: MTLQELLREEALRRAEAEAFRYALELLAEKFPEQKEYLLDLAEEIESQIRSLSGVDVEDVRKFLDFEWAWVKELLAEHPAELAEVEAARAARLAELRAEVEAKVAA
In the case of B32, the “apparent Kd (screen)” value stood at 0.653 nM.

B33: A69R (designed binder)
chain: MTLQELLREEALRRAEAEAFRYALELLAEKFPEQKEYLLDLAEEIESQIRSLSGVDVEDVRKFLDKEWRWVKELLAEHPAELAEVEAARAARLAELRAEVEAKVAA
For B33, the “apparent Kd (screen)” value came to 0.539 nM.

B34: A91G (designed binder)
chain: MTLQELLREEALRRAEAEAFRYALELLAEKFPEQKEYLLDLAEEIESQIRSLSGVDVEDVRKFLDKEWAWVKELLAEHPAELAEVEAARAGRLAELRAEVEAKVAA
Regarding B34, the “apparent Kd (screen)” value is 0.49 nM.
